In the Human Domainome abundance scans (Beltran et al. 2025):

B1: Segment polarity protein dishevelled homolog DVL-3, residues 2 to 81; numbered along this chain, Q92997 (parent)
chain: GETKIIYHLDGQETPYLVKLPLPAERVTLADFKGVLQRPSYKFFFKSMDDDFGVVKEEISDDNAKLPCFNGRVVSWLVSA

Variants of: B1
Experiment: abundance fitness (aPCA) (normalised: wild type 0, dead -1); higher = more abundant; growth selection in yeast, the domain comes from the species named
Details: Homo sapiens

Abundance fitness: each site, then its substitutions
R26: Y -0.414; Q 0.123; L -0.081; D -0.027; M -0.276; P -0.675; K 0.039; H -0.182; T -0.188; G -0.441; V -0.08; E 0.086; S -0.068; C -0.102; A 0.027; W -0.78; I -0.34
D31: I -0.173; N -0.665; M -0.047; C -0.359; A -0.099; L -0.791; E -0.178; P -0.35; G -0.776; F -0.742; H 0.282
A24: G -0.168; L -0.356; D -0.54; Y -0.325; N -0.415; W -0.235; K -0.174; V -0.42; R -0.492; M -0.546; F -0.549; I -0.431; E -0.415; C -0.107; T -0.51; Q -0.074; H -0.505; P 0.17; S -0.03
A30: E -0.831; N -0.433; W -0.517; Y -0.468; S -0.261; R 0.034; V -0.742; I -0.82; M -0.479; L -0.562; Q -0.465; G -0.045; C -0.696; D -0.967; H -0.692; F -0.858; K 0.007; T -0.795
L29: S -0.498; E -0.782; N -0.865; A -0.639; M -0.71; C -0.287; H -0.433; D -0.97; W -0.783; G -0.643; I -0.675; K -0.917; Q -0.91; Y -0.321; T -0.608
V27: K -0.469; G -0.675; T -0.762; R -0.875; P -0.656; S -0.675; I 0.003; H -0.664; A -0.478; C -0.119; D -0.987; N -0.785; W -0.929; F -0.154; E -0.624; Q -0.831; Y -0.651
T28: K -0.52; W -0.851; D -0.401; V -0.574; N -0.715; Q -0.811; C -0.793; E -0.985; P -0.555; F -0.321; M -0.604; G -0.597; I -0.578; L -0.73; S -0.757; H -0.411; R -0.379
P23: E -0.383; D -0.469; A -0.395; R -0.625; N -0.833; K -0.671; M -0.972; Q -0.731; G -0.73; V -0.739; W -0.863; H -0.55; Y -0.517; F -0.405; T -0.862; I -0.112; C -0.79; L -0.682
L22: N -0.923; G -0.856; K -0.019; A -0.604; R -0.656; E -0.617; M -0.017; V 0.059; D -0.574; P -0.645; F -0.502; Q -0.429; S -0.822; C -0.231; T -0.598; H -0.617; W -0.578
E25: G -0.096; S -0.115; I -0.658; K -0.474; R -0.59; V -0.807; A -0.252; Q -0.389; W -0.457; C -0.035; N -0.006; M -0.335; F -0.913; L -0.825; Y -0.501; H -0.022; T -0.356; P -0.965
